From article PMC8533005
Positions count from the first letter of the chain named. In names and notes the source's numbering stands.

Experiments:
Experiment in all cases: purified protein
purified protein [1] = substrate: O=S(O)(O)=S; type: biochemical, Saccharomyces cerevisiae
purified protein [2] = substrate: O=S(O)(O)=S; conditions: pH 7.4; 37.0 °C
purified protein [3] = substrate: O=S(O)(O)=S; type: biochemical, Homo sapiens; conditions: Reaction 1, sulfur donor, fixed KCN, 300 mM HEPES pH 7.4, room temperature
From the text: thiosulfate:cyanide sulfurtransferase, ferric thiocyanate colorimetry, Michaelis-Menten fit on TST

[4] = Reaction 1, sulfur donor, fixed KCN, 300 mM HEPES pH 7.4, 25 °C

B1: RDL2 (Saccharomyces cerevisiae S288C) (protein)
chain: MFKHSTGILSRTVSARSPTLVLRTFTTKAPKIYTFDQVRNLVEHPNDKKLLVDVREPKEVKDYKMPTTINIPVNSAPGALGLPEKEFHKVFQFAKPPHDKELIFLCAKGVRAKTAEELARSYGYENTGIYPGSITEWLAKGGADVKPKK
notes: His-tagged, pET30a, E. coli BL21(DE3), Ni-NTA and size exclusion; no firm dimer in crystal; active-site loop CAKGVR with Cys106 and Arg111
Purified protein [1]; [4]
  Km: 32.5 ± 3.50 mM
  kcat: 15.32 s⁻¹

B2: RDL2 (Saccharomyces cerevisiae S288C; K108A) (protein)
chain: B1 chain with K108A
notes: as for B1
Purified protein [1]; [4]
  Km: 93.23 ± 2.67 mM
  kcat: 8.71 s⁻¹

B3: RDL1 (Saccharomyces cerevisiae S288C) (protein)
chain: MWKAVMNAWNGTESQSKNVSNIQSYSFEDMKRIVGKHDPNVVLVDVREPSEYSIVHIPASINVPYRSHPDAFALDPLEFEKQIGIPKPDSAKELIFYCASGKRGGEAQKVASSHGYSNTSLYPGSMNDWVSHGGDKLDL
Purified protein [1]; pH 7.4
  Km: 4.0 ± 0.4 mM

B4: TST (Homo sapiens; T253V) (protein)
chain: MVHQVLYRALVSTKWLAESIRTGKLGPGLRVLDASWYSPGTREARKEYLERHVPGASFFDIEECRDTASPYEMMLPSEAGFAEYVGRLGISNHTHVVVYDGEHLGSFYAPRVWWMFRVFGHRTVSVLNGGFRNWLKEGHPVTSEPSRPEPAVFKATLDRSLLKTYEQVLENLESKRFQLVDSRSQGRFLGTEPEPDAVGLDSGHIRGAVNMPFMDFLTEDGFEKGPEELRALFQTKKVDLSQPLIATCRKGVVACHVALAAYLCGKPDVAVYDGSWSEWFRRAPPESRVSQGKSEKA
Purified protein [2]
  Km: 2.43 ± 0.70 mM
  kcat: 0.025 s⁻¹

B5: TST (Homo sapiens) (protein)
chain: B4 chain with V253T
notes: codon-optimized synthetic gene, pET30a, E. coli BL21(DE3), Ni-NTA and size exclusion; tandem-domain rhodanese, active-site loop CRKGVT ending in Thr253
Purified protein [3]
  Km: 15.68 ± 2.86 mM
  kcat: 101.73 s⁻¹
